Reference: the supplement of paper PMC10126150
± gives the standard deviation of the averaged measurements.
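Further: ATP exposure 15 min at 22 °C before imaging.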

The sequences below were run on ATP (assay: switch fluorescence ratio, 500 uM ATP over buffer (Cy3 cluster intensity, sum of 5 cycles each) (fold (ratio)); higher = stronger signal-on switching upon ATP binding; sequences stand for … in TCGTCGGCAGCGTCAGATGTGTATAAGAGACAGTTTTTTTTTTTTTTTTTTTTTTTTT…TC). Details: aptamer strand: ATP DNA aptamer (quencher-CACCTGGGGGAGTATTGCGGAGGAAGG + anchor), 100 nM annealed; ATP concentration: 500 uM.
Summary of the method: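 Cy3-labelled switching-strand clusters on a modified Illumina MiSeq flow-cell were annealed to 100 nM quencher-labelled ATP aptamer, imaged in selection buffer, then imaged after 15 min with 500 uM ATP at 22 °C. Five buffer/ATP cycles ran, with NaOH stripping and re-annealing between them. The fluorescence ratio is summed target-cycle over summed buffer-cycle Cy3 intensity per cluster, averaged per switch-domain sequence. Clusters outside 100-1000 RFU were excluded.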
TATCCGGAAT gave a switch fluorescence ratio of 1.79 ± 0.76.
GTGTTGGGTG gave a switch fluorescence ratio of 1.01 ± 0.011.
For TTTCGGTTCA, the switch fluorescence ratio was 1.037 ± 0.0044.
GCCATTAAAC was tested, and the switch fluorescence ratio was 0.972 ± 0.03.
TGCGTGAAAT showed a switch fluorescence ratio of 0.9765 ± 0.0044.
GGAGGGGAGT was tested, and the switch fluorescence ratio was 0.999 ± 0.014.
In the case of ATATTTGTCA, the switch fluorescence ratio is reported as 1.03 ± 0.022.
For TAGATGTTCG, the switch fluorescence ratio was 0.978 ± 0.044.
With CGTCCTGGGG the switch fluorescence ratio was 1.12 ± 0.048.
With AAAGACGTTT the switch fluorescence ratio was 1 ± 0.016.
With TATAAACTTT the switch fluorescence ratio was 1.01 ± 0.054.
TTGCAGGGTG was tested, and the switch fluorescence ratio was 1.17 ± 0.035.
TTCATGTGGA gave a switch fluorescence ratio of 1.017 ± 0.0047.
With TGACTTTGTG the switch fluorescence ratio was 1.02 ± 0.044.
In the case of GGGCAGGCTT, the switch fluorescence ratio is reported as 0.98 ± 0.017.
In the case of GCCTTCGAGG, the switch fluorescence ratio is reported as 1.03 ± 0.012.
ACATAGCTTG was tested, and the switch fluorescence ratio was 1.03 ± 0.011.
With CTTGTGTGTT the switch fluorescence ratio was 0.993 ± 0.057.
Sequence TGAAAATCGG has a switch fluorescence ratio of 0.965 ± 0.02.
AGTTTCGCTC showed a switch fluorescence ratio of 0.987 ± 0.063.
TAGTTTGAAC showed a switch fluorescence ratio of 1.01 ± 0.05.
In the case of TTGATTTACT, the switch fluorescence ratio is reported as 0.993 ± 0.03.
GATCAAAGGG was tested, and the switch fluorescence ratio was 1.01 ± 0.021.
Sequence GCTTTTTGCT has a switch fluorescence ratio of 1.012 ± 0.0054.
GGGGTGAAT was tested, and the switch fluorescence ratio was 1.01 ± 0.021.
Sequence GGTGGTGACT has a switch fluorescence ratio of 1.01 ± 0.036.
GGTTGTCCAG was tested, and the switch fluorescence ratio was 0.9966 ± 0.0014.
Work on ATTATTAAAT yielded a switch fluorescence ratio of 1.08 ± 0.18.
ATTAGGGCCA was tested, and the switch fluorescence ratio was 1.007 ± 0.0078.
Work on CCAATTGAAG yielded a switch fluorescence ratio of 1.02 ± 0.016.
GCACGTATTC gave a switch fluorescence ratio of 1.113 ± 0.0047.
AACGAGTGAG showed a switch fluorescence ratio of 1.01 ± 0.023.
With TGGATTGGGC the switch fluorescence ratio was 0.973 ± 0.038.
For GGGAAGGTGT, the switch fluorescence ratio was 1.1 ± 0.11.
Sequence TCGGGGAATA has a switch fluorescence ratio of 1.02 ± 0.014.
In the case of AAGGTGCTGC, the switch fluorescence ratio is reported as 1.035 ± 0.0022.
GTTGGGGAAA showed a switch fluorescence ratio of 0.9985 ± 0.0075.
In the case of GATAGGGGTG, the switch fluorescence ratio is reported as 1.03 ± 0.03.
Sequence AATATTTTTT has a switch fluorescence ratio of 1.01 ± 0.049.
In the case of TGCGGGGTGG, the switch fluorescence ratio is reported as 1.12 ± 0.072.
Work on TTTAAGCGCC yielded a switch fluorescence ratio of 0.966 ± 0.0085.
Work on TCATTGATTT yielded a switch fluorescence ratio of 0.978 ± 0.022.
With CGAGGAGCAT the switch fluorescence ratio was 1.01 ± 0.058.
For TTCGGAGTTA, the switch fluorescence ratio was 1.09 ± 0.12.
For ATGCATGGTA, the switch fluorescence ratio was 1.03 ± 0.009.
AGGGGAGAGT gave a switch fluorescence ratio of 1 ± 0.014.
Sequence GCGTCTGCGC has a switch fluorescence ratio of 0.943 ± 0.085.
ATCTTCTAAG gave a switch fluorescence ratio of 1.02 ± 0.03.
TTTTCGACTA was tested, and the switch fluorescence ratio was 0.97 ± 0.043.
For GGATAGGATT, the switch fluorescence ratio was 1.025 ± 0.0054.
With GATAGTGTCG the switch fluorescence ratio was 1.04 ± 0.045.
TTTTATCAAT showed a switch fluorescence ratio of 1.003 ± 0.0076.
With CGTTGGGGT the switch fluorescence ratio was 0.986 ± 0.019.
AAAGGGGGGC was tested, and the switch fluorescence ratio was 1 ± 0.057.
AAGGGGAATG gave a switch fluorescence ratio of 1.02 ± 0.056.
TGAGAGTAT showed a switch fluorescence ratio of 1.01 ± 0.034.
For TAAGAGGGTT, the switch fluorescence ratio was 1 ± 0.022.
Sequence TAAGGTGGGT has a switch fluorescence ratio of 1.002 ± 0.0017.
For TAGACGTAGG, the switch fluorescence ratio was 1.03 ± 0.028.
GGTACGTGCA was tested, and the switch fluorescence ratio was 0.99 ± 0.024.
Work on AACGAAGGTA yielded a switch fluorescence ratio of 0.9884 ± 0.0011.
In the case of TTTGGCGGAG, the switch fluorescence ratio is reported as 0.992 ± 0.03.
With AATTCGCGGG the switch fluorescence ratio was 0.981 ± 0.0069.
AGTGGGTTAG gave a switch fluorescence ratio of 1.016 ± 0.0012.
ATTGGTTAGG showed a switch fluorescence ratio of 1.01 ± 0.028.
For TAGAGCTGTT, the switch fluorescence ratio was 0.969 ± 0.031.
For AGGAGGAAGG, the switch fluorescence ratio was 1.05 ± 0.086.
GTTATGCGCG gave a switch fluorescence ratio of 1.03 ± 0.013.
In the case of TAGCAAAGAA, the switch fluorescence ratio is reported as 1.03 ± 0.03.
Work on CGGGAGTGCT yielded a switch fluorescence ratio of 0.994 ± 0.019.
With AGGGGTGTTA the switch fluorescence ratio was 0.991 ± 0.019.
TAAAGGGGCA showed a switch fluorescence ratio of 1 ± 0.028.
In the case of GCAGATTAGC, the switch fluorescence ratio is reported as 1.033 ± 0.0044.
For TTTTATGGGC, the switch fluorescence ratio was 1.01 ± 0.025.
In the case of ATGAGGGGTT, the switch fluorescence ratio is reported as 0.995 ± 0.032.
GCCTTCAATA showed a switch fluorescence ratio of 1.0946 ± 0.00028.
With ATTATGGTTA the switch fluorescence ratio was 0.9884 ± 0.0097.
In the case of TAGTTTTGGG, the switch fluorescence ratio is reported as 0.9807 ± 0.0026.
GTTATTCATG showed a switch fluorescence ratio of 0.988 ± 0.018.
CAATGGCCTG gave a switch fluorescence ratio of 0.984 ± 0.013.
GGGATAGGCA showed a switch fluorescence ratio of 1.01 ± 0.039.
In the case of GGACGGGAAC, the switch fluorescence ratio is reported as 1.13 ± 0.055.
AGATAAGTTT was tested, and the switch fluorescence ratio was 1.01 ± 0.034.
Work on GTTGCAGGTG yielded a switch fluorescence ratio of 2.06 ± 0.057.
Work on CGATTCGAGT yielded a switch fluorescence ratio of 0.967 ± 0.016.
